Results on four molecules are retold here after patent US20240101686A1 (SIMCERE ZAIMING PHARMACEUTICAL, published 2024).

Like-named read-outs stand apart in the source and are kept apart here.

In assay [1] the target is T1, human EGFR-His-tagged fusion protein (human, UniProt P00533 25-645).
T1 construct: extracellular domain; bought; also called human EGFR protein; human EGFR-His protein

For assay [2], the target named is T1, human EGFR-His-tagged fusion protein. This is another data set of the same source.
Assay [3] has the same target. The source holds these as a separate data set.
For assay [4] the target is unchanged. This is another data set of the same source.
Assay [5] has the same target. The source holds these as a separate data set.
For assay [6] the target is unchanged. This is another data set of the same source.
Assay [7] shares this target. The source holds these as a separate data set.
The target in another assay is T2, pepvIII polypeptide (human).
T2 construct: synthetic peptide (GL Biochem); also called Leu25-His37 polypeptide
T2 peptide: LEEKKGNYVVTDH

Assay [8] deals with T1, human EGFR-His-tagged fusion protein. The source holds these as a separate data set.
Assay [9] deals with T3, monkey EGFR protein (commercial, SB, catalog number 90285-C08H) (monkey).
T3 construct: Bought protein used to coat ELISA plates
The assay is described as follows: ELISA, coated monkey EGFR protein, antibody 0 nM (blank).

The target of assay [10] is T3, monkey EGFR protein (commercial, SB, …). Briefly: ELISA, coated monkey EGFR protein, antibody 0.1 nM. On the technique in general: An ELISA detects its analyte on a solid surface through an enzyme-linked reagent.
In assay [11] the target is T4, cynomolgus monkey EGFR on HEK293T-monkey EGFR cells (cynomolgus monkey, UniProt P55245 25-1210 (rhesus entry)). The assay is described as follows: FACS, HEK293T-monkey EGFR cells (specificity assay).
The target in assay [12] is T3, monkey EGFR protein (commercial, SB, …). The assay is described as follows: ELISA, coated monkey EGFR protein, antibody 1 nM.
For assay [13] the target is unchanged. Briefly: ELISA, coated monkey EGFR protein, antibody 0.0001 nM.
The target is the same in assay [14]. The assay is described as follows: ELISA, coated monkey EGFR protein, antibody 100 nM.
For assay [15], the target named is T4, cynomolgus monkey EGFR on …. The assay is described as follows: FACS, HEK293T-monkey EGFR cells.
For assay [16], the target named is T3, monkey EGFR protein (commercial, SB, …). Briefly: ELISA, coated monkey EGFR protein, antibody 0.01 nM.
The target is the same in assay [17]. Briefly: ELISA, coated monkey EGFR protein, antibody 0.001 nM.
For assay [18] the target is unchanged. The assay is described as follows: ELISA, coated monkey EGFR protein, antibody 10 nM.
Assay [19] concerns the target T5, murine EGFR protein (murine, UniProt Q01279 25-647).
T5 construct: Bought protein

The target of assay [20] is T6, human EGFRvIII-His tag protein (extracellular domain Leu25-Ser378) (human, UniProt P00533 298-645).
T6 construct: Made in HEK293E cells, purified on nickel column; also called human EGFRvIII protein; EGFRvIII protein; not shown: His tag

Assay [21] deals with T5, murine EGFR protein. The source holds these as a separate data set.
Assay [22] addresses T5, murine EGFR protein. This is another data set of the same source.
The target in assay [23] is T5, murine EGFR protein. This is another data set of the same source.
Assay [24] addresses T6, human EGFRvIII-His tag protein …. This is another data set of the same source.
Assay [25] has the same target. This is another data set of the same source.
For assay [26] the target is unchanged. The source holds these as a separate data set.
The target is the same in assay [27]. This is another data set of the same source.
Assay [28] addresses T5, murine EGFR protein. The source holds these as a separate data set.
Assay [29] addresses T5, murine EGFR protein. This is another data set of the same source.
The target of assay [30] is T6, human EGFRvIII-His tag protein …. The source holds these as a separate data set.
For assay [31], the target named is T5, murine EGFR protein. This is another data set of the same source.
The target in assay [32] is T6, human EGFRvIII-His tag protein …. The source holds these as a separate data set.
For assay [33] the target is unchanged. This is another data set of the same source.
In assay [34] the target is T5, murine EGFR protein. This is another data set of the same source.
A further assay addresses T7, human EGFR protein (human, UniProt P00533 25-645).
T7 construct: also called human EGFR-His; human EGFR-ECD protein; not shown: His tag

For assay [35], the target named is T8, human EGFRvIII-His tag protein (human, UniProt P00533 298-645).
T8 construct: Made in HEK293E, purified on nickel column; also called human EGFRvIII protein; not shown: His tag

Assay [36] deals with T9, murine EGFR protein (murine, UniProt Q01279 25-647).
T9 construct: Bought protein
This is another data set of the same source.

In a further assay the target is T10, monkey EGFR protein (cynomolgus monkey, UniProt P55245 25-645 (rhesus entry)).
T10 construct: Bought protein (SB 90285-C08H); also called cynomolgus monkey EGFR

B1: 30D8-hIgG1 (antibody, V domains shown)
VH: EVQLVESGGGLVKPGGSLRLSCEASGFTFSDAWMSWVRQAPGKGLEWVGRIKSKTDGGTTDYVVPLNGRFIISRDDSRNTLYLQLNNLKTEDTAVYYCTTVPGSYGYWGQGTLVTVSS
VL: DIVMTQSPLSLPVTPGEPASISCRSSQSLLHNKRNNYLDWFLQKPGQSPQLLIYLASNRASGVPDRFSGGGSGTDFTLKISRVEAEDVGVYYCMQAQQTPITFGQGTRLEIK
Consider B1, for which the OD450 in assay [1] is 0.05; in [2] it was 0.09; in assay [3] it was 0.05; in assay [4], 0.05; in assay [5] it was 0.07; in assay [6], 0.05. In addition, the OD450 in [7] was determined as 0.05; in assay [8], 0.06. Moreover, the binding result in the assay with pepvIII polypeptide is given as “binds”.

B2: 30D8-hIgG1 (antibody, V domains shown)
VH: B1 VH
VL: B1 VL
notes: Anti-EGFRvIII control
For the molecule B2, the OD450 in assay [9] is 0.06; in assay [10] it was 0.06; in assay [12], 0.06; in [13], 0.05; in assay [14] it was 0.19; in assay [16], 0.06. For the same molecule, the OD450 in assay [17] stood at 0.06; in assay [18], 0.08. This molecule also yielded a Max_MFI in assay [11] of 314. Besides, in [15], the “Max MFI” value turned out to be 77. Moreover, the binding result in [15] is on record as “no binding”.

B3: 30D8-hIgG1 (antibody, V domains shown)
VH: B1 VH
VL: B1 VL
notes: Variable regions cloned with human IgG1 heavy chain constant region and human light chain constant region
For B3, the OD450 was 0.06 in the assay with murine EGFR protein [19]; 0.15 in [20]; 0.06 with murine EGFR protein [21]; 0.1 with murine EGFR protein [22]; 0.06 with murine EGFR protein [23]; 0.69 in [24]. For the same molecule, the OD450 worked out at 1.89 in assay [25]; 0.07 in assay [26]; 2.52 in assay [27]; 0.06 with murine EGFR protein [28]; 0.06 in the assay with murine EGFR protein [29]; 0.07 in [30]. Moreover, the OD450 came out at 0.06 in the assay with murine EGFR protein [31], 2.25 in [32], 2.61 in assay [33] and 0.06 with murine EGFR protein [34].

B4: 30D8-hIgG1 (antibody, V domains shown)
VH: B1 VH
VL: B1 VL
notes: anti-EGFRvIII control
As to B4, the binding result with human EGFR protein is “no binding (tested: 30 µg/mL (highest EGFR concentration))”. Also, in [35], the Kd came out at 11.7 nM, the koff amounted to 0.00229 s⁻¹ and the kon amounted to 197000 M⁻¹ s⁻¹. The binding result in the assay with murine EGFR protein [36] was “no binding (tested: 200 nM (highest antigen concentration))”. Moreover, in the assay with monkey EGFR protein, the binding result is “no binding (tested: 200 nM (highest antigen concentration))”.

A word on the Kd: it is the concentration at which binding is half-saturated. The koff is a measure of how fast the partners let go of each other. In general, kon refers to a measure of how fast the partners come together.
